How the values were obtained:
[1] = molecular target: T1, mouse-human KLB chimeric protein (mouse KLB (M1-F506)-human KLB (S509-S1044)) on cells (mouse/human chimera, UniProt Q86Z14 1-1044 (human entry)); assay: FACS on transfected Expi293 cells, antibody 1 µg/ml, labelled anti-human Fc
T1 construct: also called Mouse-Human chimeric KLB; chMoHu
Method: (§1) Studies were performed in order to localize the binding site on human KLB of anti-beta klotho antibodies in the 5H23 epitope bin, including 5H23 as described in Example 3, with sequences shown in Tables 1-10 and FIGS. 1-3, and human anti-beta klotho antibodies in the 5H23 epitope bin, such as humanized 5H23 antibodies (e.g., VH SEQ ID NO: 271 and VL SEQ ID NO: 276). For example, FACS-based binding assays for domain mapping were performed on Expi293 cells (Life Technologies, A14635) that were transiently transfected with plasmids encoding variants of KLB: human, mouse, cynomolgus, a chimeric version in which the KL1 domain sequence of mouse KLB (M1-F506) replaces the KL1 domain of human KLB (M1-F508) to create mouse-human KLB (SEQ ID NO: 376), and a second chimera in which the human KL1 sequence (M1-F508) replaces the KL1 domain of mouse KLB (M1-F506) to create human-mouse KLB (SEQ ID NO: 374). Additionally, the expression vector pYD7 harboring no KLB sequence was transfected as a negative control.
(§2) In some studies, binding of a purified sample of a humanized 5H23 antibody (e.g., VH SEQ ID NO: 271 and VL SEQ ID NO: 276) to KLB variants was determined by FACS analysis. […] After washing with PBS/1% BSA/0.1% azide, transfected cells were then co-incubated with labeled anti-human Fc (Jackson lmmunoresearch) for 30 minutes at 4° C. After washing with PBS/1% BSA/0.1% azide, cells were acquired on flow cytometer (FACS Calibur) and analyzed by cytometric software (FlowJo). To display the resulting data, graphs plotting the number of cells as a function of fluorescence intensity were generated, and the median fluorescence intensity (MFI) was determined for each sample as shown in Table 30.

[2] = molecular target: T2, mouse beta klotho expressed on cells (mouse (Mus musculus), UniProt Q99N32 1-1043); assay: as above
T2 construct: also called Mouse KLB
T2 sequence: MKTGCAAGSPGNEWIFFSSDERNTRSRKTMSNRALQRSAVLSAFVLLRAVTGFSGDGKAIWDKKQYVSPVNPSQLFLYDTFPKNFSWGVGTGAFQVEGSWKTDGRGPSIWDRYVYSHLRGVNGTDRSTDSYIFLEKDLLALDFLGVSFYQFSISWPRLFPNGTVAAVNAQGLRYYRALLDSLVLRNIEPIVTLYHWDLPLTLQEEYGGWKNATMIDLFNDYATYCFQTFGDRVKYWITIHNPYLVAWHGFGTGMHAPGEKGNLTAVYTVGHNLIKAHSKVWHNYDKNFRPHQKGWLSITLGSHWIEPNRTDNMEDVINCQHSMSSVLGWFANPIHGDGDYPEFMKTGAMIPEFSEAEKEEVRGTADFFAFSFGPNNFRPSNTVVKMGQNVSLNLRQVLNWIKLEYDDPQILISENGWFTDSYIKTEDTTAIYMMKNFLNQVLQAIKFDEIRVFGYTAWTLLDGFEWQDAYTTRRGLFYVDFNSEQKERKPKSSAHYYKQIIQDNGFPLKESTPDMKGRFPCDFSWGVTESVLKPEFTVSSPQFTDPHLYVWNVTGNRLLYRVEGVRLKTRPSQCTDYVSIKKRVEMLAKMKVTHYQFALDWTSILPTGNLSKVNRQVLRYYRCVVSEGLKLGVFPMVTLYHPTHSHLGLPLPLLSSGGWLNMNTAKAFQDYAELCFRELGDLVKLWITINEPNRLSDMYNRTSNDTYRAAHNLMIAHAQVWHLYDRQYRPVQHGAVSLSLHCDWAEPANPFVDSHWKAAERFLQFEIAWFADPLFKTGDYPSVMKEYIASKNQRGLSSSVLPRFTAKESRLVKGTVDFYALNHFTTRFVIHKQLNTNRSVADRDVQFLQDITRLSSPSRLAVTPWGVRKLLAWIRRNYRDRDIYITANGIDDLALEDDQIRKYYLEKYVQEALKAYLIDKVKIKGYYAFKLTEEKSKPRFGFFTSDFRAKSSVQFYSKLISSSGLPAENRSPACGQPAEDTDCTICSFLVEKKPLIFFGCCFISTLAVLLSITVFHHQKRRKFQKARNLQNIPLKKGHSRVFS
Method: as §1, §2

[3] = molecular target: T3, human-mouse KLB chimeric protein (human KLB (M1-F508)-mouse KLB (P507-S1043)) on cells (human/mouse chimera, UniProt Q99N32 1-1043 (mouse entry)); assay: as above
T3 construct: also called Human-Mouse chimeric KLB; chHuMo
Method: as §1, §2

[4] = molecular target: T3, human-mouse KLB chimeric protein (human …); assay: FACS on transfected Expi293 cells
Method: as §1, §2

B1: humanized 5H23 antibody (VH SEQ ID NO: 271 and VL SEQ ID NO: 276) (antibody, V domains shown)
VH: QVQLQQSGAEVKKPGASVKVSCKASGYTFTSYDINWVRQAPGQGLEWIGWIYPGDGSTKYNEKFKGKATITRDTSASTAYMELSSLRSEDTAVYFCARSDYYGSRSFAYWGQGTLVTVSS
VL: DIVMTQSPDSLAVSLGERATINCRASKSVSTSGYVYMHWYQQKPGQPPKLLIYLASYLESGVPDRFSGSGSGTDFTLTISSVQAEDVAVYYCQHSRDLTFPFGGGTKLEIK
notes: also called h5H23; h5H23 (Prep 1)
[1]
  Mean Fluorescence intensity: 26.1 MFI
[2]
  Mean Fluorescence intensity: 14.2 MFI
[3]
  Mean Fluorescence intensity: 9.29 MFI
[4]
  binding result: no binding (tested: 1 µg/ml)

B2: negative control antibody, anti-keyhole limpet hemocyanin (KLH) antibody (antibody, human IgG1, kappa, V domains shown)
VH: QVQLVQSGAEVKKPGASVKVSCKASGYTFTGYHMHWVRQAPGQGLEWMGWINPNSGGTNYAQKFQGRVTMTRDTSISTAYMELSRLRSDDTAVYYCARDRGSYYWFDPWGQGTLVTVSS
VL: DIQMTQSPSSLSASVGDRVTITCRASQGIRNDLGWYQQKPGKAPKRLIYAASSLQSGVPSRFSGSGSGTEFTLTISSLQPEDFATYYCLQHNSYPLTFGGGTKVEIKR
notes: also called Neg; Control; anti-KLH antibody
[1]
  Mean Fluorescence intensity: 5.44 MFI
[2]
  Mean Fluorescence intensity: 9.59 MFI
[3]
  Mean Fluorescence intensity: 6.01 MFI
